Data from patent US20180104303A1 (UNIVERSITE DE LA ROCHELLE, published 2018).

What was measured:
Assay in all cases: cell-based or functional assay
[1] = target: T1, recombinant alpha-glucosidase from Saccharomyces cerevisiae, which is a maltase (Saccharomyces cerevisiae)
DPP-IV from pig kidney = DPP-IV from pig kidney (pig, UniProt P22411 38-766, limits assumed)
[2] = target: T1, recombinant alpha-glucosidase from …; remark: listed apart in the source
[3] = target: T1, recombinant alpha-glucosidase from …; remark: listed apart in the source

Chain of DPP-IV from pig kidney (P22411 38-766 limits assumed): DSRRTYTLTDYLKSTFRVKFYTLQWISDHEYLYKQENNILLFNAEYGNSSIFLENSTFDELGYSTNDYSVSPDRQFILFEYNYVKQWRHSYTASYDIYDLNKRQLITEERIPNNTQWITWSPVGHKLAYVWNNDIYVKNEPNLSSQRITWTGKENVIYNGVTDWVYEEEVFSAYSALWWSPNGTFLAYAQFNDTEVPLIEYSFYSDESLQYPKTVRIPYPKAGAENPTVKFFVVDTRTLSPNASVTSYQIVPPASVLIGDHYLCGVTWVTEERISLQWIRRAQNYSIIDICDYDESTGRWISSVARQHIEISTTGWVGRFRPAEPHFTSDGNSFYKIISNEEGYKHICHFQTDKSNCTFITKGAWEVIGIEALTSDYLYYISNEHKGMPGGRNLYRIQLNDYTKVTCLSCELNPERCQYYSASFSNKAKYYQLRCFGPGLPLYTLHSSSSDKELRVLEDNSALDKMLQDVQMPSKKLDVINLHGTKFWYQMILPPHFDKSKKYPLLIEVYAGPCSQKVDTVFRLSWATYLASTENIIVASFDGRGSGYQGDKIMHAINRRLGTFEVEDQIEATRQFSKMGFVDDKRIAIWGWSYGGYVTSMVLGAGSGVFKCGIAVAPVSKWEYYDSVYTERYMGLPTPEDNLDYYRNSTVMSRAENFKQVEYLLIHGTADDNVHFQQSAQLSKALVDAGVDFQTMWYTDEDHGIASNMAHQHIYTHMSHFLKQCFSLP

Row | Inhibitory activity on α-glucosidase (IC50) in mg/ml [1] [mg/mL] | Inhibitory activity on α-glucosidase (IC50) in mmol/l [1] [mmol/L] | (IC50) in mmol/l, inhibition of DPP-IV (DPP-IV from pig kidney) [mmol/L] | Inhibitory activity on α-glucosidase (IC50) [2] [mM] | IC50 ratio against the AP and VAP peptides [3] [fold] | IC50 (inhibition of the activity of α-glucosidase in vitro) [3] [mM] | IC50 ratio against acarbose [3] [fold] | Binder
1 | 3.6 | 12.3 |  | 12.3 |  |  |  | IY [IY peptide]
2 | 1.39 | 4.05 | 2.27 |  |  |  |  | VAPG [VAPG (SEQ ID NO: 6)]
3 | 2.34 | 3.19 | 5.7 |  |  |  |  | AVPYQR [AVPYQR (SEQ ID NO: 5)]
4 | 2.03 | 2.68 | 1.18 |  |  |  |  | VAPFPEV [VAPFPEV (SEQ ID NO: 4)]
5 | 3.39 | 11 |  | 11 |  |  |  | KY [KY peptide]
6 | 4.24 | 12.8 |  | 12.8 |  |  |  | KW [KW peptide]

More lines, now with the values behind:

Row | Binder | Inhibitory activity on α-glucosidase (IC50) in mg/ml [1] [mg/mL] | Inhibitory activity on α-glucosidase (IC50) in mmol/l [1] [mmol/L] | (IC50) in mmol/l, inhibition of DPP-IV (DPP-IV from pig kidney) [mmol/L] | Inhibitory activity on α-glucosidase (IC50) [2] [mM] | IC50 ratio against the AP and VAP peptides [3] [fold] | IC50 (inhibition of the activity of α-glucosidase in vitro) [3] [mM] | IC50 ratio against acarbose [3] [fold]
7 | VGVAPG [VGVAPG (SEQ ID NO: 7)] | 2.29 | 4.59 | 10.7 |  |  |  | 
8 | LKP [LKP peptide] | 2.53 | 7.11 |  | 7.11 | ~355 |  | 
9 | SAPLRVY [SAPLRVY (SEQ ID NO: 3)] | 1.42 | 1.76 | 1.06 |  |  |  | 
10 | AP [AP peptide] | 0.0025 | 0.0136 | 4.78 | 0.0136 |  | 0.0136 | ~874
11 | IPI [Diprotin A (IPI)] |  |  | 0.0121 |  |  |  | 
12 | VY [VY peptide] | 0.756 | 2.7 |  | 2.7 | ~135 |  | 
13 | VAP [VAP peptide] | 0.0057 | 0.02 | 4.82 | 0.02 |  | 0.02 | ~595
14 | GPL [GPL peptide] | 1.37 | 4.82 | 1.85 | 4.82 | ~243 |  | 
